Measurements: patent US5756340A, “Insect control with multiple toxins” (The Regents of the University of California, priority 1995, dated 1998)

Experiments:
Type in all cases: in vivo
Swiss Webster mice = experiment: LD50 to mice, subcutaneous injection; conditions: for toxicity towards mice / mammals (in words): Swiss Webster mice; for LD50 to Swiss Webster mice: single toxin, subcutaneous, 24 hours after injection
Protocol: (§1) The activities of four different insect toxins towards two different insects and towards mice were determined (since one prefers to use insect toxins that have little or no effect on mammals). These were purified by established methods from the respective crude venoms. Their toxicity towards mice and larvae of blow fly and lepidoptera was determined according to the method of Reed and Muench (1938).
The PU50 values of the toxins to blow fly larvae were in accordance with previously published results (Zlotkin et al., Biochim, 53, 1075-1078 (1971); and Eitan et al., Biochem., 29, 5941-5947 (1990)).
(§2) ^c Two replicates of eight mice were injected subcutaneously and the
to mice was determined 24 hours after injection.
as §2
LD50 to mice was determined 24 hours after injection.

[1] = test system: Heliothis virescens larvae; experiment: Paralysis (PU50) of lepidopterous larvae after toxin injection; conditions: single toxin injected; inability to move or turn when inverted, 24 hours after injection
Protocol: as §1
(§3) The PU50 values of the toxins to blow fly larvae were in accordance with previously published results (Zlotkin et al., Biochim, 53, 1075-1078 (1971); and Eitan et al., Biochem., 29, 5941-5947 (1990)). […]
each one of the toxins and the PU50 was determined as inability to
or turn when inverted on its back 24 hours after injection. […]

[2] = test system: Sarcophaga falculata larvae; experiment: Paralysis (PU50) of blow fly larvae after toxin injection; conditions: single toxin injected; contraction paralysis immediately, or flaccid/delayed paralysis 5 minutes after injection
Protocol: as §1, §3
one of the toxins and the PU50 were determined. The PU50 of
excitatory toxins AaIT, LqhVI, and LqhIT3 was determined as a
contraction paralysis immediately after injection. The PU50 of the
depressant toxin LqhIT2 was determined as a flaccid paralysis 5
after injection. The PU50 of the α insect toxins LqhαIT

Molecule | toxicity towards mice / mammals (in words) (Swiss Webster mice) | LD50 to Swiss Webster mice (Swiss Webster mice) [μg/20 g b.w.] | PU50 to Heliothis virescens larvae [1] [μg/100 mg b.w.] | PU50 to Sarcophaga falculata larvae [2] [μg/100 mg b.w.]
LqhαIT: α insect toxin from yellow scorpion Leuirus quinquestriatus hebraeus | higher toxicity | 8.0 | 2.5 | 0.0025
LqhIV (protein) peptide: GVRDAYIADDKNCVYTCGANSYCNTECTKNGAESGYCQWFGKYGNACWCIKLPDKVPIRIPGKCR | no or weak mammal toxicity | 12 | 0.5 | 0.1
LqhVI (protein) GVRDGYIAQPENCVYHCFPGSPGCDTLCKGDGASSGHCGFKEGHGLACWCNDLPDKVGIIVEGEKCH | weak mammal toxicity | > 60 | 3.0 | 0.006
AaIT: excitatory insect-selective scorpion toxin from Androctonus australis (protein, UniProt P01497 19-88, looked up) Beta-insect excitatory toxin 1: KKNGYAVDSSGKAPECLLSNYCNNECTKVHYADKGYCCLLSCYCFGLNDDKKVLEISDTRKSYCDTTIIN |  | > 60 | 2.5 | 0.0025
